In publication PMC12511343, “Structural insights into Cir-mediated killing by the antimicrobial protein Microcin V” (Communications Biology, 2025):
Changes are numbered by the printed parent chain.

B1: Microcin V (MccV), mature, wildtype (natural protein, E. coli, UniProt P22522 16-103, looked up)
chain: ASGRDIAMAIGTLSGQFVAGGIGAAAGGVAGGAIYDYASTHKPNPAMSPSGLGGTIKQKPEGIPSEAWNYAAGRLCNWSPNNLSDVCL
modifications: biotinylated (EZ-Link Sulfo-NHS-LC kit) for BLI and ELISA; not labelled for cryo-EM and SV-AUC
notes: Only residues 57-88 (mature numbering) were resolved in the map; also called WT MccV; Colicin V; source: E. coli BL21 (DE3), purified (HisTrap as His6-MBP fusion, TEV cleavage, second nickel column, flowthrough); not shown: His6, N-terminal, cleaved; MBP, N-terminal, cleaved
B2: 4-Met substituted E. coli Cir (colicin Ia receptor), the paper's wildtype (WT) Cir (receptor)
chain: VDDDGETMVVTASSVEQNLKDAPASISVITQEDLQRKPVQNLKDVLKEVPGVQLTNEGDNRKGVSIRGLDSSYTLILVDGKRVNSRNAVFRHNDFDLNWIPVDSIERIEVVRGPMSSLYGSDALGGVVNIITKKIGQKWSGTVTVDTTIQEHRDRGDTYNGQFFTSGPLIDGVLGMKAYGSLAKREKDDPQNSTTTDTGETPRIEGFSSRDGNVEFAWTPNQNHDFTAGYGFDRQDRDSDSLDKNRLERQNYSVSHNGRWDYGTSELKYYGEKVENKNPGNSSPITSESNTVDGKYTLPLTAINQFLTVGGEMRHDKMSDAVNLTGGTSSKTSASQYALFVEDEWRIFEPLALTTGVRMDDHETYGEHWSPRAYLVYNATDTVTVKGGWATAFKAPSLLQLSPDWTSNSCRGACKIVGSPDLKPETSESWELGLYYMGEEGWLEGVESSVTVFRNDVKDRISISRTSDVNAAPGYQNFVGFETGANGRRIPVFSYYNVNKARIQGVETELKIPFNDEWKLSINYTYNDGRDVSNGENKPLSDLPFHTANGTLDWKPLALEDWSMYMSGHYTGQKRADSATAKTPGGYTIWNTGAAWQVTKDVKLRAGVLNLGDKDLSRDDYSYNEDGRRYFMAVDYRF

Assays:
[1] = target: T1, Cir TonB Box mutant M33C/V35P (in 4-Met Cir) (E. coli, UniProt P17315 26-663, W338 mutated to methionine | L343 mutated to methionine | F589 mutated to …); assay: BLI
T1 sequence: B2 chain with M8C, V10P

Cir C435A (in 4-Met Cir) = target: T2, Cir C435A (in 4-Met Cir) (E. coli, UniProt P17315 26-663, W338 mutated to methionine | L343 mutated to methionine | F589 mutated to …); assay: BLI
T2 sequence: B2 chain with C410A

[2] = target: T3, Cir R436E/R490E (in 4-Met Cir) (E. coli, UniProt P17315 26-663, W338 mutated to methionine | L343 mutated to methionine | F589 mutated to …); assay: BLI
T3 sequence: B2 chain with R411E, R465E

[3] = target: T4, 4-Met substituted E. coli Cir (colicin Ia receptor), the paper's wildtype (WT) Cir (E. coli, UniProt P17315 26-663, W338 mutated to methionine | L343 mutated to methionine | F589 mutated to …); assay: BLI + AUC; stoichiometry reported from the concurrence of BLI (1:1 model) and SV-AUC (single-site model); settings: both partners purified
T4 construct: Cir (colicin Ia receptor, TonB-dependent transporter), E. coli, mature coding region of cirA with four residues changed to methionine (4-Met); No TEV cleavage of Cir is described; also called apo-Cir; His-tagged Cir; not shown: His10, N-terminal, kept
T4 sequence (looked up): B2 chain

[4] = target: T4, 4-Met substituted E. coli Cir (colicin …); assay: AUC; sedimentation velocity, NAPol-solubilised Cir and its mixtures with MccV in phosphate-buffered saline, 50,000 rpm, 20 C; single-site model; settings: both partners purified
[5] = target: T4, 4-Met substituted E. coli Cir (colicin …); assay: BLI; biotinylated MccV (100 nM) on streptavidin sensors, WT Cir 5 uM to 78 nM in PBS-T; steady state equilibrium, 1:1 binding model; incomplete equilibrium during the association phase; settings: both partners purified
[6] = target: T4, 4-Met substituted E. coli Cir (colicin …); assay: BLI; biotinylated MccV (100 nM) loaded on streptavidin SA-XT sensors, Cir in twofold dilutions 5 uM to 78 nM in PBS-T; 300 s association, 240 s dissociation; first 30 s of association and dissociation fit to a 1:1 global model; settings: both partners purified
[7] = target: D85A and D85R (MccV mutants, as a group); assay: as above

Row | Binder | Kd [1] [µM] | Kd (Cir C435A (in 4-Met Cir)) [µM] | Kd [2] [µM] | stoichiometry N [3] | Kd [4] [µM] | Kd [5] [µM] | Kd [6] [µM] | percent reduction in response shift relative to WT at 5 μM probe [7] [%]
1 | B1 | 0.374 | 0.552 | 1.58 | 1 | 0.6 ± 0.2 | 1.7 ± 1.2 | 0.155 ± 0.03 | 
2 | B2 |  |  |  |  |  |  |  | 40 to 45
